Assays:
PD1 (human) = PD1 (human) (UniProt Q15116); test: cell-based or functional assay
PD-L1 (human) = PD-L1 (human) (UniProt Q9NZQ7); test: cell-based or functional assay
Chain of UniProt Q9NZQ7 (Q9NZQ7 19-290): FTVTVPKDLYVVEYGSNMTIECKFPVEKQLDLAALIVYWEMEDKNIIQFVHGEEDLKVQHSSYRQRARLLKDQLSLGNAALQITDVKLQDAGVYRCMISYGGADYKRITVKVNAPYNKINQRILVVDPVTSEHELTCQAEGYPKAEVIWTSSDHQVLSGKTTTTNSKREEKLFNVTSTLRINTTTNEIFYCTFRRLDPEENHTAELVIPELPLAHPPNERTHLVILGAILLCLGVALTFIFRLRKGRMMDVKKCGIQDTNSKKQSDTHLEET

Chain of UniProt Q15116 (Q15116 25-288): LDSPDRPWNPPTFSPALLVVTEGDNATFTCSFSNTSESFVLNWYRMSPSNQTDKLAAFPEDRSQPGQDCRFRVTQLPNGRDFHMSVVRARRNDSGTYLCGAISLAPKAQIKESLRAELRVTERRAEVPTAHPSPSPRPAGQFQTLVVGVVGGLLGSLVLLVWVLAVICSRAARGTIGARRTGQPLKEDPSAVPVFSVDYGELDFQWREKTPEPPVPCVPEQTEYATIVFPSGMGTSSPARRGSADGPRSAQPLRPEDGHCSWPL

MEDI-565-mediated cytolysis of SW1463 with fresh T cells in the presence of anti-PD1 (PD1 (human)) [%] | tumor-specific cytolytic activity, fresh T cells, PD1 inhibition alone (PD1 (human)) [%] | tumor-specific cytolytic activity, fresh T cells, PD-L1 inhibition alone (PD-L1 (human)) [%] | Substance | tumor killing in second round, T cells previously incubated with MEDI-565 and tumor, anti-PD1 added (PD1 (human)) [%]
66.3 | 49.9 | – | Anti-PD1 (clone J116) (antibody) | 37.1
– | – | 49.9 | Anti-PD-L1 (clone MIH1) (antibody) | –

Source: patent US20170015758A1
